From US20220213157A1 (PEKING UNIVERSITY, published 2022)

What was measured:
[1] = target: human CSQ2 D348C mutant, without the signal peptide (human) (UniProt O14958); test: cell-based or functional assay
[2] = target: the molecule itself; test: crystal structure of rat CSQ2 with 200 mM Ca2+, homodimers in the asymmetric unit
Method: Human CSQ2 crystals were obtained according to a hanging drop vapor diffusion method (24-well hanging drop plate, XtalQuest) at 16° C. using 1.5 μL protein solution (25 mg/ml) and 1.5 μL reservoir solution containing 100 mM Na cacodylate (pH 6.0), 25% (vol/vol) 2-methyl-2,4-pentanedio (MPD) and 40 mM calcium lactate. Small needle-like crystals appeared within two days. After several rounds of stick seeding, the crystals had grown to approximately 50×50×400 μm. The Se-Met CSQ2 crystals were obtained using the same process. Diffraction data of native and Se-Met crystals were collected and were prcessed using CCP4 program suit (see, e.g., Winn, M. D. et al. Overview of the CCP4 suite and current developments. Acta. Crystallogr. D. Biol. Crystallogr. 67, 235-242 (2011). doi: 10.1107/S0907444910045749). The initial phase was determined by MR-SAD using PHENIX (see, e.g., P. D. Adams et al., PHENIX: a comprehensive Python-based system for macromolecular structure solution. Acta. Crystallogr. D. Biol. Crystallogr. 66, 213-221 (2010). doi: 10.1107/S0907444909052925). […] The phase was determined by molecular replacement using human CSQ2 structure as a searching model. […]
The crystal structures of the human CSQ2 protein and the rat CSQ2 protein were determined to be 2.2 Å and 2.8 Å with a high concentration of Ca²⁺ in the reservoir solution (40 mM Ca²⁺ for human CSQ2, 200 mM Ca²⁺ for rat CSQ2). […]

current of the CSQ2-immobilized single-molecule junction at 25 mV bias (1 mM Ca2+, 1.2 mM Mg2+) [1] [pA]	Molecule	binding result [2]
15	human CSQ2 D348C mutant, without the signal peptide (from UniProt O14958 20-399)	–
–	rat CSQ2 (calsequestrin 2), amino acids 20-413, without the signal peptide (other, Entered as the monomer) EEGLNFPTYDGKDRVVSLSEKNLKQVLKRYDLLCLYYHEPVSSDKVAQKQFQLKEIVLELVAQVLEHKNIGFVMVDSRKEAKLAKRLGFSEEGSLYVLKGGRTIEFDGEFAADVLVEFLLDLIEDPVEIVNNKLEVQAFERIEDQIKLLGFFKNEDSEYYKAFQEAAEHFQPYIKFFATFDKGVAKKLSLKMNEVGFYEPFMDEPSVIPNKPYTEEELVEFVKEHQRPTLRPLRPEDMFETWEDDLNGIHIVAFAEKSDPDGYEFLEILKQVARDNTDNPDLSILWIDPDDFPLLVAYWEKTFKIDLFKPQIGVVNVTDADSVWMEIPDDDDLPTAEELEDWIEDVLSGKINTEDDDNEDEDDDGDNDNDDDDDDDDNDDEDNDDDDDDDDDDE	binds
